Molecular target: subunit of the Mo-Fe protein from Azotobacter vinelandii nitrogenase (Azotobacter vinelandii (strain OP)) (UniProt P07328)
Test: electron microscopy

## subunit of the Mo-Fe protein from Azotobacter vinelandii nitrogenase (from UniProt P07328 1-492) (natural protein)
  stoichiometry N: 4

— article PMC2109139
